Read-outs that look alike come from different tables or passages of the source.
B1: XAB4 (antibody, human IgG1, kappa, V domains shown)
VH: EVQLVESGGDLVQPGGSLRLSCAASGFTFSSYWMSWVRQAPGKGLEWVANIKQDGSEKYYVDSVKGRFTISRDNAKNSLYLQMNSLRAEDTAVYYCARDRGSLYYWGQGTLVTVSS
VL: AIQLTQSPSSLSASVGDRVTITCRPSQGINWELAWYQQKPGKAPKLLIYDASSLEQGVPSRFSGSGSGTDFTLTISSLQPEDFATYYCQQFNSYPLTFGGGTKVEIKR
B2: XAB1 (antibody, human IgG1, kappa, V domains shown)
VH: EVQLVESGGDLVQPGGSLRLSCAASGFTFSSYWMSWVRQAPGKGLEWVANIKQDGSEKYYVDSVKGRFTISRDNAKNSLYLQMNSLRAEDTAVYYCARDRGSLYYWGQGTLVTVSS
VL: AIQLTQSPSSLSASVGDRVTITCRPSQGIISALAWYQQKPGKAPKLLIYDASSLENGVPSRFSGSGSGTDFTLTISSLQPEDFATYYCQQFNSYPLTFGGGTKVEIKR
B3: XAB2 (antibody, human IgG1, kappa, V domains shown)
VH: EVQLVESGGDLVQPGGSLRLSCAASGFTFSSYWMSWVRQAPGKGLEWVANIKQDGSEKYYVDSVKGRFTISRDNAKNSLYLQMNSLRAEDTAVYYCARDRGSLYYWGQGTLVTVSS
VL: AIQLTQSPSSLSASVGDRVTITCRPSQVIISALAWYQQKPGKAPKLLIYDASSLEQGVPSRFSGSVSGTDFTLTISSLQPEDFATYYCQQFDSYPLTFGGGTKVEIKR
notes: full IgG

How the values were obtained:
rat IL-17A [1] = target: T1, rat IL-17A (rat, UniProt Q61453 18-150); assay: cell-based or functional assay
T1 sequence: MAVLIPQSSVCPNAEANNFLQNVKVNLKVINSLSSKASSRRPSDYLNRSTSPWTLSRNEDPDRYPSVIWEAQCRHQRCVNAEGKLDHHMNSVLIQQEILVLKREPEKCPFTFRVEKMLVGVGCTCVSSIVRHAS

[2] = target: T2, recombinant mIL-17F (SEQ ID NO: 84) (mouse, UniProt Q7TNI7 29-161); assay: cell-based or functional assay
T2 sequence: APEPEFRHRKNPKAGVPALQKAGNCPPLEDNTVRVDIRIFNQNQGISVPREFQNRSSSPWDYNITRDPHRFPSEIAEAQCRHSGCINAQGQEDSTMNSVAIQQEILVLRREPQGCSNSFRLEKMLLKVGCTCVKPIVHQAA

[3] = target: T3, recombinant huIL-17A (SEQ ID NO: 76) (human, UniProt Q16552 24-155, limits assumed); assay: cell-based or functional assay
T3 sequence: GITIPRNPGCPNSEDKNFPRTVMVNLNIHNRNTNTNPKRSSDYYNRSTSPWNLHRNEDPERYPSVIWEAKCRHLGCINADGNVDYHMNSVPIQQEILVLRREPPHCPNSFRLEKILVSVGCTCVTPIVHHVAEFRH

[4] = target: T4, recombinant huIL-17A/F heterodimer (human, UniProt Q16552 24-155; Q96PD4 31-163, limits assumed); assay: cell-based or functional assay
T4 sequence (looked up) 1: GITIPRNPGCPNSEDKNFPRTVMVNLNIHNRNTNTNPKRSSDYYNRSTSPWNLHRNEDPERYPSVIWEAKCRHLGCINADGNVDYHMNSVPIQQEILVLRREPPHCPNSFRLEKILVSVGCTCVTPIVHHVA
T4 sequence (looked up) 2: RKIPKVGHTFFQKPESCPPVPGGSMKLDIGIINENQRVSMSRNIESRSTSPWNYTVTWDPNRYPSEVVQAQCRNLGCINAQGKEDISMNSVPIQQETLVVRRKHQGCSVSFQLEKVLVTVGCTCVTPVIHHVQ

[5] = target: recombinant mIL-17A/F (R&D Systems Cat#5390-IL) (mouse) (UniProt Q62386); assay: cell-based or functional assay
recombinant huIL-17F [6] = target: T5, recombinant huIL-17F (human, UniProt Q96PD4 31-163); assay: cell-based or functional assay
T5 sequence: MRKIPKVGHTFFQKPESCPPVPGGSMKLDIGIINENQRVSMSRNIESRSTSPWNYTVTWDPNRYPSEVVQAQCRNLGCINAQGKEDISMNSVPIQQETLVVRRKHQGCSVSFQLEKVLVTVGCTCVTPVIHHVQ

recombinant mIL-17A [7] = target: T6, recombinant mIL-17A (mouse, UniProt Q62386 26-158); assay: cell-based or functional assay
T6 sequence: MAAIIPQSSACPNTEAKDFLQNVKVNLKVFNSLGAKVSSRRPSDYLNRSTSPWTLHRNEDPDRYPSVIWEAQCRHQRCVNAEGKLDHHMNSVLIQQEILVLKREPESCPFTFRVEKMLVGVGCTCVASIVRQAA

BSA [8] = target: BSA (UniProt P02769); assay: ELISA, BSA wells, control antibody 1 µg/ml (XAB1 set)
BSA [9] = target: BSA (UniProt P02769); assay: ELISA, BSA wells, control antibody 5 µg/ml (XAB4 set)
[10] = target: T3, recombinant huIL-17A (SEQ ID NO: 76); assay: cell-based or functional assay; remark: listed apart in the source
[11] = target: T4, recombinant huIL-17A/F heterodimer; assay: cell-based or functional assay; remark: listed apart in the source
recombinant huIL-17F [12] = target: T5, recombinant huIL-17F; assay: cell-based or functional assay; remark: listed apart in the source
[13] = target: T3, recombinant huIL-17A (SEQ ID NO: 76); assay: cell-based or functional assay; remark: listed apart in the source
[14] = target: T3, recombinant huIL-17A (SEQ ID NO: 76); assay: cell-based or functional assay; remark: listed apart in the source
[15] = target: T7, recombinant mIL-17A/F (R&D Systems Cat#5390-IL) (mouse, UniProt Q62386 26-158; Q7TNI7 29-161, limits assumed); assay: cell-based or functional assay
T7 sequence (looked up) 1: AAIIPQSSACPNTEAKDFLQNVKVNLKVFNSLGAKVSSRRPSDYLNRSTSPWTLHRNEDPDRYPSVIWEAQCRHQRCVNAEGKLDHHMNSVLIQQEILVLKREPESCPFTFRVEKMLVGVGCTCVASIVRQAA
T7 sequence (looked up) 2: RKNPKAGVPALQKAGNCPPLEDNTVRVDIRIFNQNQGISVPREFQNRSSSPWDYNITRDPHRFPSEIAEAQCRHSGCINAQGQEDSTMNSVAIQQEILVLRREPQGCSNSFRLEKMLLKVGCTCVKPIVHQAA

recombinant mIL-17A [16] = target: T6, recombinant mIL-17A; assay: cell-based or functional assay; remark: listed apart in the source
[17] = target: T8, human IL-17A (construct not specified) (human, UniProt Q16552 24-155, limits assumed); assay: cell-based or functional assay
T8 sequence: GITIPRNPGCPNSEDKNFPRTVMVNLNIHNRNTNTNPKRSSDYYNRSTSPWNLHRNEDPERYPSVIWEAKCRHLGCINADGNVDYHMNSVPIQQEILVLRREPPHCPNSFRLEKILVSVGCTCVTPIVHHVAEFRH

[18] = target: T3, recombinant huIL-17A (SEQ ID NO: 76); assay: cell-based or functional assay; remark: listed apart in the source
[19] = target: T4, recombinant huIL-17A/F heterodimer; assay: cell-based or functional assay; remark: listed apart in the source
recombinant huIL-17F [20] = target: T5, recombinant huIL-17F; assay: cell-based or functional assay; remark: listed apart in the source
recombinant mIL-17A [21] = target: T6, recombinant mIL-17A; assay: cell-based or functional assay; remark: listed apart in the source
[22] = target: T9, recombinant huIL-20 (Novartis) (human) (UniProt Q9NYY1); assay: ELISA, coated cytokine, antibody 10 µg/ml
T9 sequence (looked up): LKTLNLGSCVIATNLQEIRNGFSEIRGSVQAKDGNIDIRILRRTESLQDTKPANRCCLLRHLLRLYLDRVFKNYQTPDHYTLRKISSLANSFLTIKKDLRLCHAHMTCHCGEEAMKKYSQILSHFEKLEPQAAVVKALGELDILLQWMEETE

rat IL-17A [23] = target: T1, rat IL-17A; assay: affinity determination (Tables 18-21)
cynomolgus IL-17A = target: T10, cynomolgus IL-17A (cynomolgus monkey, UniProt Q16552 24-155 (human entry), limits assumed); assay: affinity determination (Tables 18-21)
T10 construct: also called cynoIL-17A; cyno IL-17A
T10 chain: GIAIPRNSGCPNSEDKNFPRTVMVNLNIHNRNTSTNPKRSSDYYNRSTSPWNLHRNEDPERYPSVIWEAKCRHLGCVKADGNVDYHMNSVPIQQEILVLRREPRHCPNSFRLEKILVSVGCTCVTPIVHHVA

BSA, sequence (P02769 25-607 limits assumed): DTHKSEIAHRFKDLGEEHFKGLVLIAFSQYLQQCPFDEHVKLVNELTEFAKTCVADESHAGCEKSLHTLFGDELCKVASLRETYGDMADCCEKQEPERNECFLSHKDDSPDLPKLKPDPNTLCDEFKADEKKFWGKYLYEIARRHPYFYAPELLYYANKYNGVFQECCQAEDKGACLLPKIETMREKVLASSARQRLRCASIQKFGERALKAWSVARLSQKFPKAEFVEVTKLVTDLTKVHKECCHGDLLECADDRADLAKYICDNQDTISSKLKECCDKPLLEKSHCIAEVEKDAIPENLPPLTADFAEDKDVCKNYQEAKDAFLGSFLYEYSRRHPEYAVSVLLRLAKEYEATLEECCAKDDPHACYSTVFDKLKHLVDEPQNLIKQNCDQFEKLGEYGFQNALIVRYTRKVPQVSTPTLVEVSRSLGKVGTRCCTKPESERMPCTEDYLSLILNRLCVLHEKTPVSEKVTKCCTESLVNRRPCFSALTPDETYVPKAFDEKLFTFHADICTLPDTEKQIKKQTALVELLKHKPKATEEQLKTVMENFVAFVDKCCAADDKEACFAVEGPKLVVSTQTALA

Molecule | IC50, mouse KC secretion by CMT-93 cells; rIL-17A (1 nM) (rat IL-17A [1]) [nM] | IC50, mouse KC secretion by CMT-93 cells; mIL-17F (30 nM) [2] [nM] | IC50, hu-GRO-alpha secretion by BJ cells; IL-17A (30 pM) + TNF-α (6 pM) [10] | IC50, hu-GRO-alpha secretion by BJ cells; IL-17A/F (300 pM) + TNF-α (6 pM) [11] [nM] | IC50, hu-GRO-alpha secretion by BJ cells; IL-17F (10 nM) + TNF-α (6 pM) (recombinant huIL-17F [12]) [µM] | IC50, huGROα secretion by BJ cells; rhuIL-17A (0.5 nM) [13] [nM] | IC50, huIL-6 secretion by BJ cells; rhuIL-17A (0.5 nM) [14] [nM] | IC50, mouse KC secretion by CMT-93 cells; mIL-17A/F (3 nM) [15] [nM] | IC50, mouse KC secretion by CMT-93 cells; mIL-17A (1 nM) (recombinant mIL-17A [16]) [nM] | EC50, T = 0 weeks [17] [µg/mL] | EC50, T = 4 weeks at pH 8, 40° C. (forced deamidation) [17] [ng/ml] | IC50, huIL-6 secretion by BJ cells; rhuIL-17A/F (300 pM) + rhuTNF-α (6 pM) [19] [nM] | IC50, huIL-6 secretion by BJ cells; rhuIL-17F (10 nM) + rhuTNF-α (6 pM) (recombinant huIL-17F [20]) [µM] | IC50, KC secretion by CMT-93 cells; mIL-17A (0.15 nM) (recombinant mIL-17A [21]) [nM] | further results
Simulect® (1.1% solution, Batch C0011; 831179) (antibody) | > 3000 | > 3000 | – | – | – | – | – | – | – | – | – | – | – | – | IC50, hu-GRO-alpha secretion by BJ cells; IL-17A (30 pM) + TNF-α (6 pM) [3]: > 3 µM; IC50, hu-GRO-alpha secretion by BJ cells; IL-17A (1 nM) [3]: > 100 nM; IC50, huIL-6 secretion by BJ cells; rhuIL-17A (30 pM) + rhuTNF-α (6 pM) [3]: > 3 µM; IC50, huIL-6 secretion by BJ cells; rhuIL-17A (1 nM) [3]: > 100 nM; IC50, hu-GRO-alpha secretion by BJ cells; IL-17A/F (300 pM) + TNF-α (6 pM) [4]: > 3 µM; IC50, hu-GRO-alpha secretion by BJ cells; IL-17A/F (3 nM) [4]: > 100 nM; IC50, huIL-6 secretion by BJ cells; rhuIL-17A/F (300 pM) + rhuTNF-α (6 pM) [4]: > 3 µM; IC50, huIL-6 secretion by BJ cells; rhuIL-17A/F (3 nM) [4]: > 100 nM; IC50, mouse KC secretion by CMT-93 cells; mIL-17A/F (3 nM) [5]: > 3000 nM; IC50, hu-GRO-alpha secretion by BJ cells; IL-17F (10 nM) + TNF-α (6 pM) (recombinant huIL-17F [6]): > 3 µM; IC50, hu-GRO-alpha secretion by BJ cells; IL-17F (30 nM) (recombinant huIL-17F [6]): > 1000 nM; IC50, huIL-6 secretion by BJ cells; rhuIL-17F (10 nM) + rhuTNF-α (6 pM) (recombinant huIL-17F [6]): > 3 µM; IC50, huIL-6 secretion by BJ cells; rhuIL-17F (30 nM) (recombinant huIL-17F [6]): > 1000 nM; IC50, mouse KC secretion by CMT-93 cells; mIL-17A (1 nM) (recombinant mIL-17A [7]): > 3000 nM
Control antibody (BSA wells of Table 23; not identified) | – | – | – | – | – | – | – | – | – | – | – | – | – | – | O.D. (BSA [8]): 0.149 O.D.; O.D. (BSA [9]): 0.01 O.D.
B1 | 6.7 | > 10000 | 7 pM | 0.1 | > 3 | 0.44 | 0.55 | 10.3 | 13.8 | 0.048 | 47 | 0.17 | > 3 | 7 | IC50, hu-GRO-alpha secretion by BJ cells; IL-17A (1 nM) [10]: 0.35 nM; IC50, hu-GRO-alpha secretion by BJ cells; IL-17A/F (3 nM) [11]: 1.11 nM; IC50, hu-GRO-alpha secretion by BJ cells; IL-17F (30 nM) (recombinant huIL-17F [12]): > 3000 nM; IC50, huIL-6 secretion by BJ cells; rhuIL-17A (1 nM) [18]: 0.63 nM; IC50, huIL-6 secretion by BJ cells; rhuIL-17A/F (3 nM) [19]: 1.68 nM; IC50, huIL-6 secretion by BJ cells; rhuIL-17F (30 nM) (recombinant huIL-17F [20]): > 3000 nM
B2 | 467 | > 10000 | 0.72 nM | 6.22 | > 3 | 1.39 | 4.97 | > 1000 | 539 | – | – | 3.83 | > 3 | 128 | IC50, huIL-6 secretion by BJ cells; rhuIL-17A (30 pM) + rhuTNF-α (6 pM) [18]: 0.47 nM; O.D. [22]: 0.335 O.D.
B3 | – | – | – | – | – | 0.4 | 0.64 | – | – | 0.045 | 47 | – | – | 20.9 | binding result (rat IL-17A [23]): binds; binding result (cynomolgus IL-17A): binds

Reference: patent publication US20170291939A1 (Novartis, published 2017)
